Test results as given in the Immune Epitope Database (IEDB).
Each block holds one sequence with its values, some of them ahead of it.

What was measured:
HLA-A*03:01 = assay: IEDB peptide-MHC binding, purified MHC/direct/fluorescence; filed as Kd, often an IC50 or EC50 that approximates it; ≥ and ≤ were set here for values at or beyond the usual limits of such assays
HLA-B*44:02 = assay: as above; conditions: source organism: Escherichia coli O157:H7
HLA-B*27:05 = assay: as above; conditions: source organism: Escherichia coli O157:H7
HLA-B*35:01 [1] = assay: as above; conditions: source organism: Escherichia coli O157:H7
HLA-A*69:01 [2] = assay: as above; conditions: source organism: Escherichia coli O157:H7
HLA-A*26:01 [3] = assay: as above; conditions: source organism: Escherichia coli O157:H7
HLA-B*40:01 = assay: as above; conditions: source organism: Escherichia coli O157:H7
HLA-B*15:01 [4] = assay: as above
HLA-A*01:01 [5] = assay: as above; conditions: source organism: Escherichia coli O157:H7
HLA-A*11:01 = assay: as above; conditions: source organism: Escherichia coli O157:H7
HLA-B*07:02 = assay: as above; conditions: source organism: Escherichia coli O157:H7
HLA-A*31:01 = assay: as above; conditions: source organism: Escherichia coli O157:H7
HLA-B*58:01 [6] = assay: as above; conditions: source organism: Escherichia coli O157:H7
HLA-A*02:01 [7] = assay: as above; conditions: source organism: Escherichia coli O157:H7
HLA-A*02:11 = assay: as above
HLA-A*29:02 = assay: as above; conditions: source organism: Maciel virus
HLA-A*02:12 = assay: as above
HLA-A*02:16 = assay: as above
HLA-A*02:19 = assay: as above
HLA-A*02:03 = assay: as above
HLA-B*18:01 = assay: IEDB peptide-MHC binding, purified MHC/competitive/fluorescence; filed as Kd, often an IC50 or EC50 that approximates it; ≥ and ≤ were set here for values at or beyond the usual limits of such assays
HLA-A*69:01 [8] = assay: as above
HLA-A*26:01 [9] = assay: as above
HLA-B*15:01 [10] = assay: as above
HLA-B*46:01 = assay: as above
HLA-B*27:03 = assay: as above
HLA-B*51:01 = assay: as above
HLA-B*58:01 [11] = assay: as above
HLA-B*39:01 = assay: as above
HLA-A*02:01 [12] = assay: as above
HLA-B*35:01 [13] = assay: as above
HLA-A*01:01 [14] = assay: as above
HLA-C*06:02 = assay: IEDB peptide-MHC binding, purified MHC/direct/fluorescence; filed as Kd, often an IC50 or EC50 that approximates it; ≥ and ≤ were set here for values at or beyond the usual limits of such assays
HLA-A*68:02 [15] = assay: IEDB peptide-MHC binding, purified MHC/competitive/fluorescence; filed as Kd, often an IC50 or EC50 that approximates it; ≥ and ≤ were set here for values at or beyond the usual limits of such assays; conditions: source organism: Entamoeba histolytica HM-1:IMSS
HLA-C*05:01 = assay: IEDB peptide-MHC binding, purified MHC/direct/fluorescence; filed as Kd, often an IC50 or EC50 that approximates it; ≥ and ≤ were set here for values at or beyond the usual limits of such assays
HLA-C*12:03 = assay: as above
HLA-C*03:03 = assay: as above
HLA-A*68:02 [16] = assay: as above; conditions: source organism: Zaire ebolavirus
HLA-A*24:02 = assay: IEDB peptide-MHC binding, purified MHC/competitive/fluorescence; ≥ and ≤ were set here for values at or beyond the usual limits of such assays; conditions: source organism: Zaire ebolavirus
HLA-A*32:07 = assay: IEDB peptide-MHC binding, purified MHC/competitive/fluorescence; filed as Kd, often an IC50 or EC50 that approximates it; ≥ and ≤ were set here for values at or beyond the usual limits of such assays; conditions: source organism: Zaire ebolavirus
HLA-A*68:23 = assay: as above; conditions: source organism: Zaire ebolavirus
HLA-B*15:42 = assay: as above
HLA-A*32:15 = assay: as above; conditions: source organism: Zaire ebolavirus
HLA-B*83:01 = assay: as above
HLA-B*45:06 = assay: as above
[17] = source organism: Escherichia coli O157:H7
[18] = source organism: Lechiguanas virus
[19] = source organism: Escherichia coli O139:H28 str. E24377A
[20] = source organism: Salmonella enterica subsp. enterica serovar Typhi str. CT18
[21] = source organism: Salmonella enterica subsp. enterica serovar Typhi
[22] = source organism: Yersinia pestis Nepal516
[23] = source organism: Zaire ebolavirus

Kd (HLA-A*03:01; [17]): ≥ 20000 nM
Kd (HLA-B*44:02): ≥ 20000 nM
Kd (HLA-B*27:05): ≥ 20000 nM
Kd (HLA-B*35:01 [1]): 1370 nM
Kd (HLA-A*69:01 [2]): ≥ 20000 nM
Kd (HLA-A*26:01 [3]): ≥ 20000 nM
Kd (HLA-B*40:01): ≥ 20000 nM
Kd (HLA-B*15:01 [4]; [17]): ≥ 20000 nM
Kd (HLA-A*01:01 [5]): ≥ 20000 nM
Kd (HLA-A*11:01): ≥ 20000 nM
Kd (HLA-B*07:02): 223 nM
Kd (HLA-A*31:01): ≥ 20000 nM
Kd (HLA-B*58:01 [6]): ≥ 20000 nM
Kd (HLA-A*02:01 [7]): ≥ 20000 nM
Sequence: RPPRRGDKF

Sequence: HTQAIEGAW
Kd (HLA-A*03:01; source organism: Maciel virus): ≥ 20000 nM
Kd (HLA-A*02:11; source organism: Maciel virus): ≥ 20000 nM
Kd (HLA-A*29:02): ≥ 20000 nM
Kd (HLA-A*02:12; source organism: Maciel virus): ≥ 20000 nM
Kd (HLA-A*02:16; source organism: Maciel virus): ≥ 20000 nM
Kd (HLA-A*02:19; source organism: Maciel virus): ≥ 20000 nM
Kd (HLA-A*02:03; source organism: Maciel virus): ≥ 20000 nM
Kd (HLA-B*18:01; [18]): ≥ 20000 nM
Kd (HLA-A*69:01 [8]; [18]): ≥ 20000 nM
Kd (HLA-A*26:01 [9]; [18]): ≥ 20000 nM
Kd (HLA-B*15:01 [10]; [18]): ≥ 20000 nM
Kd (HLA-B*46:01; [18]): ≥ 20000 nM
Kd (HLA-B*27:03; [18]): ≥ 20000 nM
Kd (HLA-B*51:01; [18]): ≥ 20000 nM
Kd (HLA-B*58:01 [11]; [18]): 1.3 nM
Kd (HLA-B*39:01; [18]): ≥ 20000 nM
Kd (HLA-A*02:01 [12]; [18]): ≥ 20000 nM

Kd (HLA-B*35:01 [13]; [19]): 6.6 nM
Kd (HLA-A*26:01 [9]; [19]): 41.6 nM
Kd (HLA-B*15:01 [10]; [19]): 156 nM
Kd (HLA-A*01:01 [14]; [19]): ≥ 20000 nM
Sequence: EIVAEYITY

Sequence: IGILHLILW
Kd (HLA-B*58:01 [11]; source organism: Influenza A virus (A/Memphis/1/1978(H1N1))): 3270 nM

Sequence: CAMFWYHYI
Kd (HLA-C*06:02; source organism: Entamoeba histolytica HM-1:IMSS): 1260 nM
Kd (HLA-A*68:02 [15]): 7.2 nM

Sequence: ITDWLNFTL
Kd (HLA-C*05:01; [20]): 213 nM
Kd (HLA-A*01:01 [14]; [21]): 977 nM
Kd (HLA-B*58:01 [11]; [21]): 123 nM
Kd (HLA-A*02:01 [12]; [21]): 2.2 nM

Sequence: FASASSYAI
Kd (HLA-C*12:03; [22]): 105 nM
Kd (HLA-C*05:01; [22]): 866 nM
Kd (HLA-C*03:03; [22]): ≤ 1 nM
Kd (HLA-B*35:01 [13]; [22]): 0.4 nM
Kd (HLA-B*51:01; [22]): 3780 nM
Kd (HLA-B*39:01; [22]): 7.4 nM

Sequence: TTIGEWAFW
Kd (HLA-A*03:01; [23]): ≥ 20000 nM
Kd (HLA-A*02:11; [23]): ≥ 20000 nM
Kd (HLA-B*15:01 [4]; [23]): ≥ 20000 nM
Kd (HLA-A*02:12; [23]): ≥ 20000 nM
Kd (HLA-A*02:16; [23]): ≥ 20000 nM
Kd (HLA-A*68:02 [16]): ≥ 20000 nM
Kd (HLA-A*02:19; [23]): ≥ 20000 nM
Kd (HLA-A*02:03; [23]): ≥ 20000 nM
IC50 (HLA-A*24:02): 113 nM
Kd (HLA-B*18:01; [23]): ≥ 20000 nM
Kd (HLA-A*32:07): 3.3 nM
Kd (HLA-A*68:23): 1.6 nM
Kd (HLA-B*15:42; [23]): ≥ 5000 nM
Kd (HLA-A*69:01 [8]; [23]): ≥ 20000 nM
Kd (HLA-A*26:01 [9]; [23]): ≥ 20000 nM
Kd (HLA-A*32:15): 26.9 nM
Kd (HLA-B*46:01; [23]): ≥ 20000 nM
Kd (HLA-B*27:03; [23]): ≥ 20000 nM
Kd (HLA-B*83:01; [23]): ≥ 5000 nM
Kd (HLA-B*45:06; [23]): ≥ 5000 nM
Kd (HLA-B*58:01 [11]; [23]): 0.3 nM
Kd (HLA-B*39:01; [23]): ≥ 20000 nM
Kd (HLA-A*02:01 [12]; [23]): ≥ 20000 nM

Sequence: FVVDTTPPL
Kd (HLA-C*12:03; [20]): 372 nM
Kd (HLA-C*05:01; [20]): 1100 nM
Kd (HLA-C*03:03; [20]): 2 nM
Kd (HLA-B*15:42; [21]): ≥ 5000 nM
Kd (HLA-B*35:01 [13]; [21]): ≤ 0.1 nM
Kd (HLA-B*83:01; [21]): ≥ 5000 nM
Kd (HLA-B*45:06; [21]): ≥ 5000 nM
Kd (HLA-B*39:01; [21]): 7 nM
Kd (HLA-A*02:01 [12]; [21]): 0.2 nM

Kd (HLA-C*12:03; [19]): 10 nM
Kd (HLA-C*03:03; [19]): ≤ 1 nM
Kd (HLA-B*15:01 [10]; [19]): ≥ 20000 nM
Kd (HLA-B*58:01 [11]; [19]): 748 nM
Kd (HLA-B*39:01; [19]): ≥ 20000 nM
Kd (HLA-A*02:01 [12]; [19]): 164 nM
Sequence: LAAEEILTL

Sequence: YARYVLQKL
Kd (HLA-C*06:02; source organism: human gammaherpesvirus 4): 874 nM
